# Assay: yeast display, Sf9 membrane polyspecificity reagent, FACS + sequencing; frameworks hold sequencing errors
# Procedure, shortened: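 Nanobodies came from a synthetic yeast display library in Saccharomyces cerevisiae BJ5465, induced with galactose for 36–48 hours and stained for 1 hour at 4 °C with 10% biotinylated, detergent-solubilized Sf9 membrane reagent. Cells were enriched on streptavidin microbeads and then FACS-sorted, with low and high (top ~1%) gates set on anti-HA fluorescence for expression and streptavidin fluorescence for reagent binding. Each polyreactivity label reflects the gate a clone came from. Genes were amplified by colony PCR, sequenced by MiSeq 2 × 250 and filtered by CDR length.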
row,Sequence,polyreactivity (PSR sort gate)
1,QVQLVESGGGLVQAGGSLRLSCAASGFTFSSNGMGWYRQAPGKERELVAAITRRGGSTYYADSVKGRFTISRDNAKNTVYLQMNSLKPEDTAVYYCAARRSGTYYGTYKSNGRNYWGQGTQVTVSS,high polyreactivity
2,QVQLVESGGGLVQAGGSLRLSCAASGFTFSSYAMGWYRQAPGKERELVAAISTRGGSTYYADSVKGRFTISRDNAKNTVYLQMNSLKPEETAVYYCAARYGTSYKVRWTYYAFDYWGQGTQVTVSS,low polyreactivity
3,QVQLVESGGGLVQAGGSLRLSCAASGFTFSSYAMGWYRQAPGKERELVAAITQSGGRTYYADSVKGRFTISRDNAKNTVYLQMNSLKPEDTADYYCAADVTLWYDYWGQGTQVTVSS,low polyreactivity
4,QVQLVESGGGLVQAGGSLRLSCAASGFTFSSYYMGWYRQAPGKERELVAAITSSGDDTYYADSVKGRFTISRDNAKNTVYLQMNSLKPEDTAVYYCAAEYTEGYTHDYGGQGTQVTVSS,low polyreactivity
5,QVQLVESGGGLVQAGGSLRLSCAASGFTFSTYAMGWYRQAPGKERELVAAISRSGGSTYYADSVKGRFTISRDNAKNTVYLQMNSLKPEDTAVYYCNAEGPSYYYIIYDYWGQGTQVTGSS,high polyreactivity
6,QVQLVESGGGLVQAGGSLRLSCAASGFTFSTYTMGWYRPAPGKVRELVAAITWTGGRKYYADSVKGRFTISRDNAKNTVFLQMNSLKPEDTAVYYCNRAGYTGAEVYGYDYWGQGTQVTVSS,high polyreactivity
7,QVQLVESGGGLVQAGGSLRLSCAASGFTFSVYVIGWYRQAPGKERELVAAISSGGDTTYADSVKGRFTISRDNAKNTVYLQMNSLKPEDTAVYYCADYRVILYYLYDYWGQGTQVTVSS,low polyreactivity
8,QVQLVESGGGLVQAGGSLRLSCAASGFTFSWYAMGWYRQAPGKERELVAAISLSGDRTYYADSVKGRFTISRDNANNTVYLQMNSLKPEDTAVYYCVFAFEYWGQGTQVTVSS,low polyreactivity
9,QVQLVESGGGLVQAGGSLRLSCAASGFTFSWYAMGWYRQAPGKERELVAVITGAGITDYADSVKGRFTISRDNAKNTVYLQMNSLKPEDTAVYYCNAKSDRGVSGSGSGAYDYWGQGTQVTVSS,low polyreactivity
10,QVQLVESGGGLVQAGGSLRLSCAASGFTFSYNTMGWYREAPGKERELVAAISRSGGRTFYADSVKGRFTISRDNAKNTVYLQMNSLKPEDTAVYYCARPWFDYWGQGTQVTVSS,high polyreactivity
11,QVQLVESGGGLVQAGGSLRLSCAASGFTFSYNTMGWYRQAPGKERELVAAIDGSGGSTYYADSVKGRFTISRDNAKNTVYLQMNSLKPEDTAVYYCAAEWYRGGEYRRYDYWGQGTQVTVSS,high polyreactivity
12,QVQLVESGGGLVQAGGSLRLSCAASGFTFSYYAKGWYRQAPGKERELVARISFSGTRTYYADSVKGRFTISRDNAKKTVYLQMKSLKPEDTAVSYWARRPGAWKYVYSGDYWGQGTQVTVSS,high polyreactivity
13,QVQLVESGGGLVQAGGSLRLSCAASGFTFSYYAKGWYRQAPGKERELVAVISDRGGITYYADSVKGRFTISRDNAKNTVYLQMNSLKPEDTAVYYCAAQNPRYNDRYYYWGQGTQVTVSS,low polyreactivity
14,QVQLVESGGGLVQAGGSLRLSCAASGFTFSYYAMGWYRQAPGKERELVAAIRGGGSTYADSVKGRFTISRDNAKNTVYLQMHSLKPEDTAVYYCAARYSGSPYPTRRYDYWGQGTQVTVSS,high polyreactivity
15,QVQLVESGGGLVQAGGSLRLSCAASGFTFSYYAMGWYRQAPGKERELVAAISWNGGSTYYADSVKGRFTISRDNAKNTVYLQMNCLKPEDTAVYYCAADSLLYYYDTGYEYWGQGTQVTVSS,high polyreactivity
16,QVQLVESGGGLVQAGGSLRLSCAASGFTFSYYAMGWYRQAPGKERELVASISRSGNTYYADSVKGRFTISRDNAKNSVYLQMNSLKPEDTAVYYCAAAYKSYYLDGTYYYWGQGTQVTVSS,high polyreactivity
17,QVQLVESGGGLVQAGGSLRLSCAASGFTFSYYGMGWYRQAPGKERELVAAISWSGGRTYYADSVKGRFTISRDNAKNTVYLQMNSLKPEDTAVYYCAASAPRGYGYKYYYWGQGTQVTVSS,high polyreactivity
18,QVQLVESGGGLVQAGGSLRLSCAASGFTFSYYTMGWYRQAPGKERELVAAISSTGVSTYYADSVKGRFTISRDNAKNTVYLQMNSLKPEDTAVYYCAADYYGVYEYYYWGQGTQVTVSS,high polyreactivity
19,QVQLVESGGGLVQAGGSLRLSCAASGFTFTANAMGWYRQAPGKERELVAAITRNGGRTYYADSVKGRFTLSRDNAKNNVYLQMNSLKPEDTAVYYCAKPNSQRIHDDYDYWGQGTQVTVSS,high polyreactivity
20,QVQLVESGGGLVQAGGSLRLSCAASGFTFTAYAMGWYRQAPGKERELVAAISYRGGRTNYAYSVKGRFTISRDNAKNTVYLQMNSLKPEDTAVYYCAARPRISTREMDYWGQGTQVTVSS,high polyreactivity
21,QVQLVESGGGLVQAGGSLRLSCAASGFTFTDYAKGWYRQAPGKERELVAAITKGGGRTYYADSVKWRFTISRDNAKNSVYLQMNSQKPEDTAVYYCNARYQVPYGYWGQGTQVTVSS,low polyreactivity

row,Sequence,polyreactivity (PSR sort gate)
1,QVQLVESGGGLVQAGGSLRLSCAASGFTFTGYAMGWYRQAPGKERELVAAISQSGGSTYADSVKGRFTISRDNAKNTVYLQMNSLKPEDTAVYYCAAVWFLLTEYDYWGQGTQVTVSS,low polyreactivity
2,QVQLVESGGGLVQAGGSLRLSCAASGFTFTGYAMGWYRQAPGKERELVAAISQSGGSTYADSVKGRFTISRDNAKNTVYLQMNSLKPEDTAVYYCNAATHGPFDYWGQGTQVTVSS,low polyreactivity
3,QVQLVESGGGLVQAGGSLRLSCAASGFTFTKNAMGWYRQAPGKERELVAAISRGGRTYYADSVKGRFTISRDNAKNTVYLQMNSLKPEDTADYYCAKGYASQILVAPRSQYYYWGQGTQVTVSS,high polyreactivity
4,QVQLVESGGGLVQAGGSLRLSCAASGFTFTKYDMGWYRQAPGKERELVAVITWSGGSTYYADSVKGRFTISRDNAKNTVYLQMNSLKPEDTAVYYCNDEAPRYTYGRMDYWGQGTQVTVSS,low polyreactivity
5,QVQLVESGGGLVQAGGSLRLSCAASGFTFTNYAMGWYRQAPGKERELVAAINSSGSTNYADSVKGRFTISRDNAKNTVYLQMNSLKPEDTAVYYCAVDYSYWVHGFWDDYDYWGQGTQVTVSS,low polyreactivity
6,QVQLVESGGGLVQAGGSLRLSCAASGFTFTPNAMGRYRQAPGKERELVAVISYSGGSTYYADSVKGRFTISRDNAKNTVYLQMNSLKPEDTAVYYCAKRTYSSKYFGFEYWGQGTQVTVSS,high polyreactivity
7,QVQLVESGGGLVQAGGSLRLSCAASGFTFTQYAMGWYGQAPGKEREFVAAITASGGSTYYADSVKGRFTISRDNAKNTVYLQMNSLKPEDTAVYYCAAKGRPDGKYDYWGQGTQVTVSS,high polyreactivity
8,QVQLVESGGGLVQAGGSLRLSCAASGFTFTRNAMGWYRQAPGKERELVAAITSSGGRTYYADSVKGRFTISRDNAKNTVYLQMNSLKPEDTAVYYCAVYPRYSLPARDYDYWGQGTQVTVSS,high polyreactivity
9,QVQLVESGGGLVQAGGSLRLSCAASGFTFTRYAMGWYRQAPGKERELVADITRSGGTTYYADSVKGRFTISRDNAKNTVYLQMNSLKPEDTAVYYCAADTYSHGRYYRMDYWGQGTQVTVSS,high polyreactivity
10,QVQLVESGGGLVQAGGSLRLSCAASGFTFTSNAMGWYRQAPGKERELVAAITSSGGITYYADSVKGRFTISRDNAKNTVYLQMNSLKPEDTAVYYCAASISSYNSPGYGYWGQGTQVTVSS,low polyreactivity
11,QVQLVESGGGLVQAGGSLRLSCAASGFTFTSNAMGWYRQAPGKERELVAVISTRGGSTYYADSVKGRFTISRDNAKNTVYLQMNSLKPEDTAVYYCAARQIPNSVLVHYGYWGLGTQVTVSS,high polyreactivity
12,QVQLVESGGGLVQAGGSLRLSCAASGFTFTSYTMGWYRQAPGKERELVAVISWSGGGTYYADSVKGRFTISRDNAKNTVYLQMNSLKPEDTAVYYCNKAPTNLFGGRYDYWGQGTQVTVSS,low polyreactivity
13,QVQLVESGGGLVQAGGSLRLSCAASGFTFTTYVMGWYRQAPGKERELVAAISRRGTSTRYADSVKGRFTISRDNAKNTVYLQMNSLKPEDTAVYYCAADRPYSIVPYDYWGQGTQVTVSS,high polyreactivity
14,QVQLVESGGGLVQAGGSLRLSCAASGFTFTVYAMGWYRQAPGKERELVAVITSGDGTYYADSVKGRFTISRDNAKNTVYLQMHSLKPEDTAVYYCNARRYSSLRYRFAYDYWGQGTQVTESS,low polyreactivity
15,QVQLVESGGGLVQAGGSLRLSCAASGFTFTWYAMGWYRQAPGKERELVASISRSGGSTYYADSVKGRFTISRDNAKNTVYLQMNSLKPEDTAVYYCAAVSRTRSYDYWGQGTQVTVSS,high polyreactivity
16,QVQLVESGGGLVQAGGSLRLSCAASGFTFTYNDMGWYIQAPGKEREFVAAISSTGGSTYYADSVKGRFTISRDNAKNTVYLQMNSLKAEDTAVYYCAAEDSWYWDAWFDYWGQGTQVTVSS,low polyreactivity
17,QVQLVESGGGLVQAGGSLRLSCAASGFTFTYNDMGWYRQAPGKEREFVAAISSTGGSTYYADSVKGRFTISRDNAKNTVYLQMNSLKPEDTAVYYCAAEDSWYWDAWFDYWGQGTQVTVSS,low polyreactivity
18,QVQLVESGGGLVQAGGSLRLSCAASGFTFTYYALGWYRQAPGKERQLVAAISSRGGRTYYADSVKVRFRISRDNAKNTVYLLMKSLKPEDTAVYYCAARVYKGWPTHYDYLGQGTQVTVSS,high polyreactivity
19,QVQLVESGGGLVQAGGSLRLSCAASGFTFTYYAMGWYRQAPGKERELVAAISWNGGSTYYADSVKGRFTISRDNAKNTVYLQMNSLKPEDTAVYYCNAYDYQYFYGYEYDYWGQGTQVTVSS,high polyreactivity
20,QVQLVESGGGLVQAGGSLRLSCAASGFTFTYYAMGWYRQAPGKERELVAAITKSGGSTYYADSVKGRFTISRDNAKNTVYLQMNSLKPEDTAVYYCAADTRYGRERYYWGQGTQVTVSS,high polyreactivity

# — the nanobody polyreactivity screen of Harvey et al. (2022)
